Results reported in patent US20090252683A1 (Amgen, published 2009).

T1: cynomolgus EpCAM antigen on transfected CHO cells (cynomolgus, UniProt Q1WER1 24-265 (rhesus entry))
T1 construct: 48 holds the extracellular portion
T1 sequence: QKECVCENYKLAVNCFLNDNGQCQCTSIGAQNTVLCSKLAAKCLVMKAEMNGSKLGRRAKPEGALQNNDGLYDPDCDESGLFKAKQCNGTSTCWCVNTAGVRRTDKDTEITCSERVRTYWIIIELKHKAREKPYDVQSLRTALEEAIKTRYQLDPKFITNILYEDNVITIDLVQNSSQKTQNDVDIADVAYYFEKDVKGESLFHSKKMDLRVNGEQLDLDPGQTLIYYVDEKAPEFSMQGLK

T2: human EpCAM antigen on Kato III cells or human EpCAM transfected CHO cells (human, UniProt P16422 24-265)
T2 construct: 137 holds only the extracellular portion; the protein stood whole on cells
T2 sequence: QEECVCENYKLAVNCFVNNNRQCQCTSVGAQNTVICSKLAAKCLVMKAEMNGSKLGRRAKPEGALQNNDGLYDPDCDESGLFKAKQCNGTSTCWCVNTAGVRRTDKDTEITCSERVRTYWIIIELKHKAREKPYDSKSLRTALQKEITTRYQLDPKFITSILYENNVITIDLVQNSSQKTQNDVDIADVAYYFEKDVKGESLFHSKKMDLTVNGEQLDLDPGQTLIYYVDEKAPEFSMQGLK


Assays:
[1] = molecular target: T1, cynomolgus EpCAM antigen on transfected …; experiment: FACS, cynomolgus EpCAM transfected CHO cells (FIG. 8B), anti-His detection
Text: (§1) FIG. 8: FACS assay for binding of 2G8LH×SEQ ID NO. 12, 2G8LH×SEQ ID NO. 10, 2G8LH×SEQ ID NO. 16, 2G8LH×SEQ ID NO. 14, 2G8HL×SEQ ID NO. 12, 2G8HL×SEQ ID NO. 10, 2G8HL×SEQ ID NO. 16 and 2G8HL×SEQ ID NO. 14 on Kato III (FIG. 8A) cells or cynomolgus EpCAM transfected CHO cells (FIG. 8B) and HPB-ALL cells. Antigen binding was clearly detectable for the anti EpCAM specificities as well as for the anti CD3 specificities. As a negative control for binding to cynomolgus EpCAM, the 5-10LH×SEQ ID NO.
(§2) Binding of the bifunctional constructs from cell culture supernatants or binding of purified bifunctional constructs to the human EpCAM antigen on Kato III cells or cynomolgus EpCAM transfected CHO cells and to the CD3 antigen on HPB-ALL cells was tested using an FACS assay. For that purpose 2.5×10⁵ cells were incubated with 50 μl supernatant or with 5 μg/ml of the purified constructs in 50 μl PBS with 2% FCS. The binding of the constructs was detected with an anti-His antibody (Penta-His Antibody, BSA free, obtained from Qiagen GmbH, Hilden, FRG) at 2 μg/ml in 50 μl PBS with 2% FCS. […] The samples were measured on a FACSscan (BD biosciences, Heidelberg, FRG). Antigen binding was clearly detectable for the anti EpCAM specificities as well as for the anti CD3 specificities (see FIG. 8). As a negative control for binding to cynomolgus EpCAM, the 5-10LH×SEQ ID NO. […] The 5-10LH part only binds to human EpCAM.

[2] = molecular target: T2, human EpCAM antigen on Kato III cells …; experiment: FACS, Kato III cells (FIG. 8A), anti-His detection
Text: as §1, §2

[3] = molecular target: T1, cynomolgus EpCAM antigen on transfected …; experiment: cell-based or functional assay
[4] = molecular target: cynomolgus CD3 antigen on cynomolgus PBMC / macaque T cells (Macaca fascicularis (cynomolgus), UniProt Q95LI5 22-117; Q95LI7 23-110; Q95LI8 22-103); experiment: cell-based or functional assay
cynomolgus CD3 antigen on cynomolgus PBMC / macaque T cells, sequence (Q95LI5 22-117, chain 1 of 3): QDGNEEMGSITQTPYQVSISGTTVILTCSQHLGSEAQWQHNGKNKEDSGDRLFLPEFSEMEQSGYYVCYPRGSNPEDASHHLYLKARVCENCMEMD
cynomolgus CD3 antigen on cynomolgus PBMC / macaque T cells, sequence (Q95LI7 23-110, chain 2 of 3): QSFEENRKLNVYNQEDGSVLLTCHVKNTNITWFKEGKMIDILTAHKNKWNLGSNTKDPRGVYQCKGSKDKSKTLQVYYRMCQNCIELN
cynomolgus CD3 antigen on cynomolgus PBMC / macaque T cells, sequence (Q95LI8 22-103, chain 3 of 3): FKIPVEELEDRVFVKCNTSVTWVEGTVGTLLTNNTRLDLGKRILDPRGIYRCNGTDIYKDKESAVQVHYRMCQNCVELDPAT

Row | binding result [1] | binding result [2] | Binder | EC50 (half maximal killing), FACS-based cytotoxicity, cynomolgus EpCAM transfected CHO target cells, cynomolgus PBMC effector cells [3] | EC50 (half maximal killing), FACS-based cytotoxicity, cynomolgus EpCAM transfected CHO target cells, human PBMC effector cells [3] | EC50 (half maximal killing), FACS-based cytotoxicity, cynomolgus EpCAM transfected CHO target cells, cynomolgus PBMC effector cells [4]
1 | binds | binds | 2G8LH×SEQ ID NO. 14 bispecific single chain antibody (bispecific antibody) DVVMTQTPLTLSVTIGQPASISCKSSQSLLYSNGKTYLNWILQRPGQSPKRLIYLVSKLDSGVPDRFTGSGSGTDFTLKISRVEAEDLGVYYCVQGTHFPLTFGAGTKLELKGGGGSGGGGSGGGGSEVQLQQSGAELVRSGASVKLSCTASGFNIKDYYLHWVKQRPEQGLEWIAWIDLENGDIKYAPKFQGKATITADTSSNTAYLQLSSLTSEDTAVYYCNPYYYGSNYDYAMDYWGQGTSVTVSSGGGGSQVQLQQSGAELARPGASVKMSCKASGYTFTRSTMHWVKQRPGQGLEWIGYINPSSAYTNYNQKFKDKATLTADKSSSTAYMQLSSLTSEDSAVYYCASPQVHYDYNGFPYWGQGTLVTVSAGGGGSGGGGSGGGGSQVVLTQSPAIMSAFPGEKVTMTCSASSSVSYMNWYQQKSGTSPKRWIYDSSKLASGVPARFSGSGSGTSYSLTISSMETEDAATYYCQQWSRNPPTFGGGTKLQITHHHHHH | – | – | –
2 | binds | binds | 2G8HL×SEQ ID NO. 16 bispecific single chain antibody (bispecific antibody) EVQLQQSGAELVRSGASVKLSCTASGFNIKDYYLHWVKQRPEQGLEWIAWIDLENGDIKYAPKFQGKATITADTSSNTAYLQLSSLTSEDTAVYYCNPYYYGSNYDYAMDYWGQGTSVTVSSGGGGSGGGGSGGGGSDVVMTQTPLTLSVTIGQPASISCKSSQSLLYSNGKTYLNWILQRPGQSPKRLIYLVSKLDSGVPDRFTGSGSGTDFTLKISRVEAEDLGVYYCVQGTHFPLTFGAGTKLELKSGGGGSQVVLTQSPAIMSAFPGEKVTMTCSASSSVSYMNWYQQKSGTSPKRWIYDSSKLASGVPARFSGSGSGTSYSLTISSMETEDAATYYCQQWSRNPPTFGGGTKLQITGGGGSGGGGSGGGGSQVQLQQSGAELARPGASVKMSCKASGYTFTRSTMHWVKQRPGQGLEWIGYINPSSAYTNYNQKFKDKATLTADKSSSTAYMQLSSLTSEDSAVYYCASPQVHYDYNGFPYWGQGTLVTVSAHHHHHH | – | – | –
3 | – | binds | 2G8LH×SEQ ID NO. 10 bispecific single chain antibody (bispecific antibody) DVVMTQTPLTLSVTIGQPASISCKSSQSLLYSNGKTYLNWILQRPGQSPKRLIYLVSKLDSGVPDRFTGSGSGTDFTLKISRVEAEDLGVYYCVQGTHFPLTFGAGTKLELKGGGGSGGGGSGGGGSEVQLQQSGAELVRSGASVKLSCTASGFNIKDYYLHWVKQRPEQGLEWIAWIDLENGDIKYAPKFQGKATITADTSSNTAYLQLSSLTSEDTAVYYCNPYYYGSNYDYAMDYWGQGTSVTVSSGGGGSEVKLLESGGGLVQPKGSLKLSCAASGFTFNTYAMNWVRQAPGKGLEWVARIRSKYNNYATYYADSVKDRFTISRDDSQSILYLQMNNLKTEDTAMYYCVRHGNFGNSYVSWFAYWGQGTLVTVSAGGGGSGGGGSGGGGSQAVVTQESALTTSPGETVTLTCRSSTGAVTTSNYANWVQEKPDHLFTGLIGGTNKRAPGVPARFSGSLIGDKAALTITGAQTEDEAIYFCALWYSNLWVFGGGTKLTVLHHHHHH | 39.8 ng/mL | 1100 pg/mL | 39.8 ng/mL

The remaining lines, values behind:

Row | Binder | binding result [1] | binding result [2] | EC50 (half maximal killing), FACS-based cytotoxicity, cynomolgus EpCAM transfected CHO target cells, cynomolgus PBMC effector cells [3] | EC50 (half maximal killing), FACS-based cytotoxicity, cynomolgus EpCAM transfected CHO target cells, human PBMC effector cells [3] | EC50 (half maximal killing), FACS-based cytotoxicity, cynomolgus EpCAM transfected CHO target cells, cynomolgus PBMC effector cells [4]
4 | 2G8HL×SEQ ID NO. 14 bispecific single chain antibody (bispecific antibody) EVQLQQSGAELVRSGASVKLSCTASGFNIKDYYLHWVKQRPEQGLEWIAWIDLENGDIKYAPKFQGKATITADTSSNTAYLQLSSLTSEDTAVYYCNPYYYGSNYDYAMDYWGQGTSVTVSSGGGGSGGGGSGGGGSDVVMTQTPLTLSVTIGQPASISCKSSQSLLYSNGKTYLNWILQRPGQSPKRLIYLVSKLDSGVPDRFTGSGSGTDFTLKISRVEAEDLGVYYCVQGTHFPLTFGAGTKLELKSGGGGSQVQLQQSGAELARPGASVKMSCKASGYTFTRSTMHWVKQRPGQGLEWIGYINPSSAYTNYNQKFKDKATLTADKSSSTAYMQLSSLTSEDSAVYYCASPQVHYDYNGFPYWGQGTLVTVSAGGGGSGGGGSGGGGSQVVLTQSPAIMSAFPGEKVTMTCSASSSVSYMNWYQQKSGTSPKRWIYDSSKLASGVPARFSGSGSGTSYSLTISSMETEDAATYYCQQWSRNPPTFGGGTKLQITHHHHHH | binds | binds | – | – | –
5 | 2G8LH×SEQ ID NO. 12 bispecific single chain antibody (bispecific antibody) DVVMTQTPLTLSVTIGQPASISCKSSQSLLYSNGKTYLNWILQRPGQSPKRLIYLVSKLDSGVPDRFTGSGSGTDFTLKISRVEAEDLGVYYCVQGTHFPLTFGAGTKLELKGGGGSGGGGSGGGGSEVQLQQSGAELVRSGASVKLSCTASGFNIKDYYLHWVKQRPEQGLEWIAWIDLENGDIKYAPKFQGKATITADTSSNTAYLQLSSLTSEDTAVYYCNPYYYGSNYDYAMDYWGQGTSVTVSSGGGGSQAVVTQESALTTSPGETVTLTCRSSTGAVTTSNYANWVQEKPDHLFTGLIGGTNKRAPGVPARFSGSLIGDKAALTITGAQTEDEAIYFCALWYSNLWVFGGGTKLTVLGGGGSGGGGSGGGGSEVKLLESGGGLVQPKGSLKLSCAASGFTFNTYAMNWVRQAPGKGLEWVARIRSKYNNYATYYADSVKDRFTISRDDSQSILYLQMNNLKTEDTAMYYCVRHGNFGNSYVSWFAYWGQGTLVTVSAHHHHHH | binds | binds | – | – | –
6 | 2G8HL×SEQ ID NO. 10 bispecific single chain antibody (bispecific antibody) EVQLQQSGAELVRSGASVKLSCTASGFNIKDYYLHWVKQRPEQGLEWIAWIDLENGDIKYAPKFQGKATITADTSSNTAYLQLSSLTSEDTAVYYCNPYYYGSNYDYAMDYWGQGTSVTVSSGGGGSGGGGSGGGGSDVVMTQTPLTLSVTIGQPASISCKSSQSLLYSNGKTYLNWILQRPGQSPKRLIYLVSKLDSGVPDRFTGSGSGTDFTLKISRVEAEDLGVYYCVQGTHFPLTFGAGTKLELKSGGGGSEVKLLESGGGLVQPKGSLKLSCAASGFTFNTYAMNWVRQAPGKGLEWVARIRSKYNNYATYYADSVKDRFTISRDDSQSILYLQMNNLKTEDTAMYYCVRHGNFGNSYVSWFAYWGQGTLVTVSAGGGGSGGGGSGGGGSQAVVTQESALTTSPGETVTLTCRSSTGAVTTSNYANWVQEKPDHLFTGLIGGTNKRAPGVPARFSGSLIGDKAALTITGAQTEDEAIYFCALWYSNLWVFGGGTKLTVLHHHHHH | binds | binds | – | – | –
7 | 2G8HL×SEQ ID NO. 12 bispecific single chain antibody (bispecific antibody) EVQLQQSGAELVRSGASVKLSCTASGFNIKDYYLHWVKQRPEQGLEWIAWIDLENGDIKYAPKFQGKATITADTSSNTAYLQLSSLTSEDTAVYYCNPYYYGSNYDYAMDYWGQGTSVTVSSGGGGSGGGGSGGGGSDVVMTQTPLTLSVTIGQPASISCKSSQSLLYSNGKTYLNWILQRPGQSPKRLIYLVSKLDSGVPDRFTGSGSGTDFTLKISRVEAEDLGVYYCVQGTHFPLTFGAGTKLELKSGGGGSQAVVTQESALTTSPGETVTLTCRSSTGAVTTSNYANWVQEKPDHLFTGLIGGTNKRAPGVPARFSGSLIGDKAALTITGAQTEDEAIYFCALWYSNLWVFGGGTKLTVLGGGGSGGGGSGGGGSEVKLLESGGGLVQPKGSLKLSCAASGFTFNTYAMNWVRQAPGKGLEWVARIRSKYNNYATYYADSVKDRFTISRDDSQSILYLQMNNLKTEDTAMYYCVRHGNFGNSYVSWFAYWGQGTLVTVSAHHHHHH | – | binds | 60.4 ng/mL | 3640 pg/mL | 60.4 ng/mL
8 | 2G8LH×SEQ ID NO. 16 bispecific single chain antibody (bispecific antibody) DVVMTQTPLTLSVTIGQPASISCKSSQSLLYSNGKTYLNWILQRPGQSPKRLIYLVSKLDSGVPDRFTGSGSGTDFTLKISRVEAEDLGVYYCVQGTHFPLTFGAGTKLELKGGGGSGGGGSGGGGSEVQLQQSGAELVRSGASVKLSCTASGFNIKDYYLHWVKQRPEQGLEWIAWIDLENGDIKYAPKFQGKATITADTSSNTAYLQLSSLTSEDTAVYYCNPYYYGSNYDYAMDYWGQGTSVTVSSGGGGSQVVLTQSPAIMSAFPGEKVTMTCSASSSVSYMNWYQQKSGTSPKRWIYDSSKLASGVPARFSGSGSGTSYSLTISSMETEDAATYYCQQWSRNPPTFGGGTKLQITGGGGSGGGGSGGGGSQVQLQQSGAELARPGASVKMSCKASGYTFTRSTMHWVKQRPGQGLEWIGYINPSSAYTNYNQKFKDKATLTADKSSSTAYMQLSSLTSEDSAVYYCASPQVHYDYNGFPYWGQGTLVTVSAHHHHHH | binds | binds | – | – | –
